Assay [1] has as its target recombinant S5aΔVWA (human). The experiment in a line: ITC. In general terms: In ITC the heat of successive injections is recorded.
Assay [2] concerns the target recombinant full-length S5a (human) (UniProt P55036). As to the kind of experiment: ITC.

pKd: −log10 of the molar value.

What is called pKd is the Kd on a negative log10 scale, so that one unit is a factor of ten.

UniProt P55036, sequence (P55036 whole entry): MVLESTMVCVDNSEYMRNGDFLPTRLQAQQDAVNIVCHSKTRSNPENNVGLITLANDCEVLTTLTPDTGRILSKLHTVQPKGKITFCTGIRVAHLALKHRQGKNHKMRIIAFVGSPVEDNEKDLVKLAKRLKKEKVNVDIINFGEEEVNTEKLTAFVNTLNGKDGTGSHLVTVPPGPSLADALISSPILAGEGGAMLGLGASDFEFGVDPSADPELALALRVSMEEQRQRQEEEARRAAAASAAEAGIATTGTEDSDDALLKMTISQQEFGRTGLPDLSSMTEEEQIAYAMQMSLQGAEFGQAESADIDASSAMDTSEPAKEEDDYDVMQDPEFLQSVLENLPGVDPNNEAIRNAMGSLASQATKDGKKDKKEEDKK

As for “monoubiquitin (from UniProt P0CG47 1-76) (natural protein)”, the pKd in assay [1] is 4.08.

“monoubiquitin (from UniProt P0CG47 1-76) (natural protein; other documents disagree on this pair)”: in assay [2], the negative logarithm of the Kd (pKd) was 3.95.

The record behind these values is article PMC4263443.
